Bounds are passed on as bounds.

In experiment [1] the target is HPV-16 L1 VLP (重组人乳头瘤病毒-16型VLP蛋白, 未变性) (人乳头瘤病毒16型 (HPV16)) (UniProt P03101). Briefly: indirect ELISA, HPV16 VLP 200 ng/well coated, antibody at 1, 0.2 and 0.04 ug/ml. For orientation: In an ELISA, binding on a coated surface is turned into a signal by an enzyme label.
Experiment [2] shares this target. Put plainly: indirect ELISA, native VLP 2 ug/ml coated, antibody 0.3 ug/ml.
The target is the same in experiment [3]. Put plainly: competition ELISA on coated HPV16 VLP; HRP-labelled antibody 0.3 ug/ml; competitor: WHO international standard 05/134 at 0.5 IU/ml.
The next experiment addresses T1, HPV-58 L1 VLP (HPV58, UniProt P26535 27-524).
T1 construct: also called HPV58VLP
T1 sequence: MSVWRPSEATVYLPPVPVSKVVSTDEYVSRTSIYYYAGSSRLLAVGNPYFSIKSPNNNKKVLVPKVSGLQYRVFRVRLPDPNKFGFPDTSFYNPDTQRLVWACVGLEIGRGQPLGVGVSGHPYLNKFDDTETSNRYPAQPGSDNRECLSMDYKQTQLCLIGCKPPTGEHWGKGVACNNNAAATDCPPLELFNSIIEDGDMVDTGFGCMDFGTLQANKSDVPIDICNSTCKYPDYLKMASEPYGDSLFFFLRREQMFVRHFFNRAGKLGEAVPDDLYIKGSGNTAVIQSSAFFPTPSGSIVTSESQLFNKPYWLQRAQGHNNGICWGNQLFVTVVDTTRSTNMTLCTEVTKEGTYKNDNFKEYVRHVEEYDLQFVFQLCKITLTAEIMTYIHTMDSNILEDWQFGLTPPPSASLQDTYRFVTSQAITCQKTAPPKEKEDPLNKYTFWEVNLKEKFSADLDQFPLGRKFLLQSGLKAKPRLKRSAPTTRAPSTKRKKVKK
Put plainly: indirect ELISA, VLP 2 ug/ml coated.

The next experiment has as its target T2, HPV-18 L1 VLP (HPV18, UniProt P06794 62-568).
T2 construct: also called HPV18 VLP
T2 sequence: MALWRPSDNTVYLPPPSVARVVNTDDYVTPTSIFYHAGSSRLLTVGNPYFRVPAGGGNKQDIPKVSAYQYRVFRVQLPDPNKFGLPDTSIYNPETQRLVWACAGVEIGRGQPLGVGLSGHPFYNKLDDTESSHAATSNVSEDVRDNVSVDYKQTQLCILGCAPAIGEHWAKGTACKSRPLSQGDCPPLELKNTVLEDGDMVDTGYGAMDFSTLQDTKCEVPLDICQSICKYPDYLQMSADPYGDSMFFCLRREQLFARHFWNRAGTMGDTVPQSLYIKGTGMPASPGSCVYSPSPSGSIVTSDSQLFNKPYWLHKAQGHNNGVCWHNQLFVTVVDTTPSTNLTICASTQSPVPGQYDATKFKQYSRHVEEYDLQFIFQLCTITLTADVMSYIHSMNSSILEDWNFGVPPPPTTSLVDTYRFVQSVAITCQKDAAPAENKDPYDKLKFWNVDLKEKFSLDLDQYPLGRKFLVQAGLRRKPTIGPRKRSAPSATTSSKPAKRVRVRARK
Briefly: indirect ELISA, VLP 2 ug/ml coated.

A further experiment concerns the target T3, HPV33 VLP (HPV33, UniProt P06416 1-499).
T3 sequence: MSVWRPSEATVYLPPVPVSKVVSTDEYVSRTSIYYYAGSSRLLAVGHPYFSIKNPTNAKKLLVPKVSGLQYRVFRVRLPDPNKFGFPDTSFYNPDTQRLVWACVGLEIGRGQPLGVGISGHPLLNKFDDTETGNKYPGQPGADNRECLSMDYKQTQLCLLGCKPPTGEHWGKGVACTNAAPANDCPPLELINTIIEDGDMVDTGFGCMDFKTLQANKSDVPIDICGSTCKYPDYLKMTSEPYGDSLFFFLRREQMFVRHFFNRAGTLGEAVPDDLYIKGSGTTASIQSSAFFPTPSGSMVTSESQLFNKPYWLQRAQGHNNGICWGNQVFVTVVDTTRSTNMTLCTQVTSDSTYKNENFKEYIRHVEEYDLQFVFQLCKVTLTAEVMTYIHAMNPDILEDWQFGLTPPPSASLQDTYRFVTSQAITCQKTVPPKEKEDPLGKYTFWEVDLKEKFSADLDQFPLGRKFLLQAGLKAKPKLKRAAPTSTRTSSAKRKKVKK
Put plainly: SPR, BIACORE 3000. Background: Surface plasmon resonance follows binding to a sensor surface in real time, without labels.

A further experiment has as its target T4, HPV6 VLP (HPV6, UniProt P69899 1-500).
T4 sequence: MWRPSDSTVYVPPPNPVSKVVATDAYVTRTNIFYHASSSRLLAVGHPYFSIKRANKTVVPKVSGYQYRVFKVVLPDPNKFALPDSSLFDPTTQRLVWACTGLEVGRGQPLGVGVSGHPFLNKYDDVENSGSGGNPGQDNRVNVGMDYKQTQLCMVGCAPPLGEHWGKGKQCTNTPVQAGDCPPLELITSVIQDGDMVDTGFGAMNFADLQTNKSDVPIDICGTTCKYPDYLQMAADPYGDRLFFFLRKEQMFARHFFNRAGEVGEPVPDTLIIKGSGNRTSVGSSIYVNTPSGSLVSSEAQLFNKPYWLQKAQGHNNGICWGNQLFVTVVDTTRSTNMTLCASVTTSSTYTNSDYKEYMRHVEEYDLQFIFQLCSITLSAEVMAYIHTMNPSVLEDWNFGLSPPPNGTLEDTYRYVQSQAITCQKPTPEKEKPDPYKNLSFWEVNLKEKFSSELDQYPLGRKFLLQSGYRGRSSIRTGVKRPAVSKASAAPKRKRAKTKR
Put plainly: SPR, BIACORE 3000.

Another experiment addresses T5, HPV31 VLP (HPV31, UniProt P17388 1-504).
T5 sequence: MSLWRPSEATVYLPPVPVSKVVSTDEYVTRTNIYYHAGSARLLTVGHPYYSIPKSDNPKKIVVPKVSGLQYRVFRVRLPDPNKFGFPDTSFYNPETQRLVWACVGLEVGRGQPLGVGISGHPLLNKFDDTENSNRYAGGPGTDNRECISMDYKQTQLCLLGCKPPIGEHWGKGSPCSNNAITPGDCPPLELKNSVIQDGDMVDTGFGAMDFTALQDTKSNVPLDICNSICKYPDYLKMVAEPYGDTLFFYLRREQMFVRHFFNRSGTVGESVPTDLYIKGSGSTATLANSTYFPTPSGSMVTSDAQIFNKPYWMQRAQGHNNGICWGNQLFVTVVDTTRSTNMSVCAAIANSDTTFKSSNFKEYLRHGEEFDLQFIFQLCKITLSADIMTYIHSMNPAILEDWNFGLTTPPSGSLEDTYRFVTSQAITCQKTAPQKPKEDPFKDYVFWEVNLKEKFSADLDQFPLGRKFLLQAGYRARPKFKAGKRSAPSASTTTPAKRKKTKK
Put plainly: SPR, BIACORE 3000.

A further experiment deals with T6, HPV45 VLP (HPV45, UniProt P36741 30-539).
T6 sequence: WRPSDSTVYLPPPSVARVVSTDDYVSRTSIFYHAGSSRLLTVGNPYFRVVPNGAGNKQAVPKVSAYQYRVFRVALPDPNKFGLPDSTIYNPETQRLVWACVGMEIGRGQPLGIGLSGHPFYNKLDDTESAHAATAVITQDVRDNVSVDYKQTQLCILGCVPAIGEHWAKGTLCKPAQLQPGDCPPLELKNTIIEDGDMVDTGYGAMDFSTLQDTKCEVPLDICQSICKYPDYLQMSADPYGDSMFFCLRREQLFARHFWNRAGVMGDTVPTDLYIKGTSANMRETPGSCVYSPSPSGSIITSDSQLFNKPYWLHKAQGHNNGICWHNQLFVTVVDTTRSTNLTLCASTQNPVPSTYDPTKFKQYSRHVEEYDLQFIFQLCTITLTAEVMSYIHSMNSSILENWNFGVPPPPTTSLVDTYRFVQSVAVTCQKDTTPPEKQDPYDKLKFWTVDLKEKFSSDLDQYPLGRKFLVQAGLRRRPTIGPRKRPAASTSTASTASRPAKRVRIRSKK
Put plainly: SPR, BIACORE 3000.

A further experiment addresses T7, HPV11 VLP (HPV11, UniProt P04012 1-501).
T7 sequence: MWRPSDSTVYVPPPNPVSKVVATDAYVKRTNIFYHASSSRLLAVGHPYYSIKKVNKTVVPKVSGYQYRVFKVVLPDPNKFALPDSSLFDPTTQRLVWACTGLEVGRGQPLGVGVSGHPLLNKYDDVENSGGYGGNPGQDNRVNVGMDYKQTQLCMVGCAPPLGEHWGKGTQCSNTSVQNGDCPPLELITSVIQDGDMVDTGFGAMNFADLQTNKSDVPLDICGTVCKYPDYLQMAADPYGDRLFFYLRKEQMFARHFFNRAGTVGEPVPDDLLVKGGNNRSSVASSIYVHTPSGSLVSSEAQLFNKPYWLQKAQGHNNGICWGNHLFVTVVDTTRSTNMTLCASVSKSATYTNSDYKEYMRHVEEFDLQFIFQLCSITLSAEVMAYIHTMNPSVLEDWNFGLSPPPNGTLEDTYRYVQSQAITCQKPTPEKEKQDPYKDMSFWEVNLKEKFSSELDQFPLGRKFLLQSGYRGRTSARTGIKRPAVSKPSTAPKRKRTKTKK
Briefly: SPR, BIACORE 3000.

UniProt P03101, sequence (P03101 whole entry): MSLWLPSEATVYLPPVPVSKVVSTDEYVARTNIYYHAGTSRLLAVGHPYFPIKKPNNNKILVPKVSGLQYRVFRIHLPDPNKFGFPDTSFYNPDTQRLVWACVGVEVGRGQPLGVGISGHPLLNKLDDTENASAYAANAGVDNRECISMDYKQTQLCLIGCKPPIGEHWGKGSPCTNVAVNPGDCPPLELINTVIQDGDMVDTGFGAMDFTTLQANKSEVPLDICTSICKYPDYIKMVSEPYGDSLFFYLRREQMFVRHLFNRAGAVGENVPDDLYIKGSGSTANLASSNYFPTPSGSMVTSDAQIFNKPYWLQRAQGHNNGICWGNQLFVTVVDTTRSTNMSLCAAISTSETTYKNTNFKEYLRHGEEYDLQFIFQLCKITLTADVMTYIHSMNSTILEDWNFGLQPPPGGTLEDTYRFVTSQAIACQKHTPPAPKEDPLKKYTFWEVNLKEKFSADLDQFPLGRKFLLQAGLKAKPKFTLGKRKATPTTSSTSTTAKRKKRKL

B1: 单克隆抗体4G12 (杂交瘤细胞株4G12, CGMCC 11298) (antibody, V domains shown)
VH: VKLQQSGAELVKPGASVKLSCTASGFNIKDTYMHWVKQRPEQGLEWIGRIDPANGNPQYDPKFQGKATITADTSSNTACLQLSSLTSEDTAVFYCAREVGGYYFDYWGQGTTVTVSS
VL: DIQLTRSPAIMSASPGEKVTITCSASSSVSYMHWFQQKPGTSPKLWIYSTSNLASGVPARFSGSGSGTSYSLTISRMEAEDAATYYCQQRSSYPWTFGGGTKLEI
Take B1: in experiment [1], the 信号强度 (ELISA) was above 1. The same molecule returned an OD450 in [2] above 1 OD450. Further, the 抑制率 in experiment [3] was above 40%.

B2: 单克隆抗体5A6 (杂交瘤细胞株5A6, CGMCC 11299) (antibody, V domains shown)
VH: VKLQQSGAELVKPGASVKLSCTASGFNIKDTYMHWVKQRPEQGLEWIGRIDPANGNTEYDPNFQGKATITSDTSSNTAYLHLSSLTSEDTAVYYCAREVGGYYFDYWGQGTTVTVSS
VL: DIQLTQSPSSMSASLGDRITITCQATQDIVKNLNWYQQKPGKPPSFLIYYATELAEGVPSRFSGSGSGSDYSLTISNLESEDFADYYCLQFYEFPLTFGAGTKLEI
notes: Capture antibody of the sandwich kit; also called 克隆5A6
For B2, in experiment [1], the 信号强度 (ELISA) is above 1. Moreover, the binding result with HPV-58 L1 VLP is recorded as “no binding (tested: 0.3μg/ml)”; with HPV-18 L1 VLP it was “no binding (tested: 0.3μg/ml)”; with HPV33 VLP, “no binding (tested: antibody up to 20nmol/L)”; with HPV6 VLP, “no binding (tested: antibody up to 20nmol/L)”; in the experiment with HPV31 VLP it was “no binding (tested: antibody up to 20nmol/L)”; with HPV45 VLP it was “no binding (tested: antibody up to 20nmol/L)”. Moreover, the binding result in the experiment with HPV11 VLP is listed as “no binding (tested: antibody up to 20nmol/L)”. This molecule also displayed an OD450 in [2] above 1 OD450. Moreover, the 抑制率 in experiment [3] was above 40%.

Source of the values: patent publication CN105585631A (BEIJING HEALTH GUARD BIOTECHNOLOGY CO LTD, dated 2016).
